Literature values, collected in publication PMC3433420.
Like-named read-outs stand apart in the source and are kept apart here.

What was measured:
Conditions in all cases: cited from earlier work
SYK-NC (Homo sapiens) [1] = target: SYK-NC (Homo sapiens) (UniProt P43405)
GRB7 (Homo sapiens) [2] = target: GRB7 (Homo sapiens) (UniProt Q14451)
RASA1-C (Homo sapiens) = RASA1-C (Homo sapiens) (UniProt P20936)
ITK (Homo sapiens) = ITK (Homo sapiens) (UniProt Q08881)
ABL2 (Homo sapiens) [3] = target: ABL2 (Homo sapiens) (UniProt P42684)
PIK3R3-NC (Homo sapiens) [4] = target: PIK3R3-NC (Homo sapiens) (UniProt Q92569)
SH2D1B (Homo sapiens) = SH2D1B (Homo sapiens) (UniProt O14796)
VAV3 (Homo sapiens) = VAV3 (Homo sapiens) (UniProt Q9UKW4)
TENC1 (Homo sapiens) [5] = target: TENC1 (Homo sapiens) (UniProt Q63HR2)
VAV1 (Homo sapiens) [6] = target: VAV1 (Homo sapiens) (UniProt P15498)
SHF (Homo sapiens) = SHF (Homo sapiens) (UniProt Q7M4L6)
PIK3R1-NC (Homo sapiens) [7] = target: PIK3R1-NC (Homo sapiens) (UniProt P27986)
PIK3R1-C (Homo sapiens) = PIK3R1-C (Homo sapiens) (UniProt P27986)
NCK2 (Homo sapiens) = NCK2 (Homo sapiens) (UniProt O43639)
GRB10 (Homo sapiens) = GRB10 (Homo sapiens) (UniProt Q13322)
TNS3 (Homo sapiens) = TNS3 (Homo sapiens) (UniProt Q68CZ2)
SRC (Homo sapiens) = SRC (Homo sapiens) (UniProt P12931)
SHC1-PTB (Homo sapiens) [8] = target: SHC1-PTB (Homo sapiens) (UniProt P29353)
VAV2 (Homo sapiens) = VAV2 (Homo sapiens) (UniProt P52735)
YES1 (Homo sapiens) [9] = target: YES1 (Homo sapiens) (UniProt P07947)
SHB (Homo sapiens) [10] = target: SHB (Homo sapiens) (UniProt Q15464)
SHE (Homo sapiens) = SHE (Homo sapiens) (UniProt Q5VZ18)
SH2D3C (Homo sapiens) = SH2D3C (Homo sapiens) (UniProt Q8N5H7)
RASA1-NC (Homo sapiens) [11] = target: RASA1-NC (Homo sapiens) (UniProt P20936)
SYK-NC (Homo sapiens) [12] = target: SYK-NC (Homo sapiens) (UniProt P43405); remark: listed apart in the source
PIK3R1-N (Homo sapiens) [13] = target: PIK3R1-N (Homo sapiens) (UniProt P27986)
ABL2 (Homo sapiens) [14] = target: ABL2 (Homo sapiens) (UniProt P42684); remark: listed apart in the source
PIK3R3-NC (Homo sapiens) [15] = target: PIK3R3-NC (Homo sapiens) (UniProt Q92569); remark: listed apart in the source
RASA1-N (Homo sapiens) [16] = target: RASA1-N (Homo sapiens) (UniProt P20936)
TENC1 (Homo sapiens) [17] = target: TENC1 (Homo sapiens) (UniProt Q63HR2); remark: listed apart in the source
VAV1 (Homo sapiens) [18] = target: VAV1 (Homo sapiens) (UniProt P15498); remark: listed apart in the source
PIK3R1-NC (Homo sapiens) [19] = target: PIK3R1-NC (Homo sapiens) (UniProt P27986); remark: listed apart in the source
PIK3R3-N (Homo sapiens) [20] = target: PIK3R3-N (Homo sapiens) (UniProt Q92569)
PIK3R2-NC (Homo sapiens) [21] = target: PIK3R2-NC (Homo sapiens) (UniProt O00459)
PIK3R3-C (Homo sapiens) = PIK3R3-C (Homo sapiens) (UniProt Q92569)
PIK3R1-N (Homo sapiens) [22] = target: PIK3R1-N (Homo sapiens) (UniProt P27986); remark: listed apart in the source
ABL2 (Homo sapiens) [23] = target: ABL2 (Homo sapiens) (UniProt P42684); remark: listed apart in the source
PIK3R3-NC (Homo sapiens) [24] = target: PIK3R3-NC (Homo sapiens) (UniProt Q92569); remark: listed apart in the source
PIK3R1-NC (Homo sapiens) [25] = target: PIK3R1-NC (Homo sapiens) (UniProt P27986); remark: listed apart in the source
PIK3R3-N (Homo sapiens) [26] = target: PIK3R3-N (Homo sapiens) (UniProt Q92569); remark: listed apart in the source
PIK3R2-NC (Homo sapiens) [27] = target: PIK3R2-NC (Homo sapiens) (UniProt O00459); remark: listed apart in the source
PIK3R2-N (Homo sapiens) = PIK3R2-N (Homo sapiens) (UniProt O00459)
ABL2 (Homo sapiens) [28] = target: ABL2 (Homo sapiens) (UniProt P42684); remark: listed apart in the source
SHC1-PTB (Homo sapiens) [29] = target: SHC1-PTB (Homo sapiens) (UniProt P29353); remark: listed apart in the source
SLA (Homo sapiens) = SLA (Homo sapiens) (UniProt Q13239)
ABL2 (Homo sapiens) [30] = target: ABL2 (Homo sapiens) (UniProt P42684); remark: listed apart in the source
PLCG2-NC (Homo sapiens) [31] = target: PLCG2-NC (Homo sapiens) (UniProt P16885)
PIK3R3-NC (Homo sapiens) [32] = target: PIK3R3-NC (Homo sapiens) (UniProt Q92569); remark: listed apart in the source
RASA1-N (Homo sapiens) [33] = target: RASA1-N (Homo sapiens) (UniProt P20936); remark: listed apart in the source
RASA1-NC (Homo sapiens) [34] = target: RASA1-NC (Homo sapiens) (UniProt P20936); remark: listed apart in the source
ABL2 (Homo sapiens) [35] = target: ABL2 (Homo sapiens) (UniProt P42684); remark: listed apart in the source
YES1 (Homo sapiens) [36] = target: YES1 (Homo sapiens) (UniProt P07947); remark: listed apart in the source
SHB (Homo sapiens) [37] = target: SHB (Homo sapiens) (UniProt Q15464); remark: listed apart in the source
GRB7 (Homo sapiens) [38] = target: GRB7 (Homo sapiens) (UniProt Q14451); remark: listed apart in the source
BLK (Homo sapiens) = BLK (Homo sapiens) (UniProt P51451)
PLCG2-NC (Homo sapiens) [39] = target: PLCG2-NC (Homo sapiens) (UniProt P16885); remark: listed apart in the source
PLCG2-N (Homo sapiens) = PLCG2-N (Homo sapiens) (UniProt P16885)
YES1 (Homo sapiens) [40] = target: YES1 (Homo sapiens) (UniProt P07947); remark: listed apart in the source
RASA1-NC (Homo sapiens) [41] = target: RASA1-NC (Homo sapiens) (UniProt P20936); remark: listed apart in the source

Sequence of YES1 (Homo sapiens) (P07947 153-260): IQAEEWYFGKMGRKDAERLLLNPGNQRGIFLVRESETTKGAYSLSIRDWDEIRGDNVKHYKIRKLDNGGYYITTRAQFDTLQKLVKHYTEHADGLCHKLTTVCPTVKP
Sequence of ABL2 (Homo sapiens) (P42684 168-268): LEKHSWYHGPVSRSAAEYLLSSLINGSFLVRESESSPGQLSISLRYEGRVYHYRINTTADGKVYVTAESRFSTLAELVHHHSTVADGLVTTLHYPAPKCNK
Sequence of PIK3R1-NC (Homo sapiens) (P27986 328-723): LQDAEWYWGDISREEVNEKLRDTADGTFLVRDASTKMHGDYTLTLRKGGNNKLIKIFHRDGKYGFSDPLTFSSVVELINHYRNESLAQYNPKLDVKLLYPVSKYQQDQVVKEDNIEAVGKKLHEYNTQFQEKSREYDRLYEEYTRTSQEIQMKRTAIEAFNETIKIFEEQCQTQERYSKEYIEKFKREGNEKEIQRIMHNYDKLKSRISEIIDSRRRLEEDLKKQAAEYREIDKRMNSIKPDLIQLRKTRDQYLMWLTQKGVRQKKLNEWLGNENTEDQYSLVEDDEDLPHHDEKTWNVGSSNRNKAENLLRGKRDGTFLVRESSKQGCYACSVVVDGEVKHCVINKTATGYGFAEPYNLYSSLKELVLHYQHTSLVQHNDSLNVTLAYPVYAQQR
Sequence of RASA1-NC (Homo sapiens) (P20936 176-446): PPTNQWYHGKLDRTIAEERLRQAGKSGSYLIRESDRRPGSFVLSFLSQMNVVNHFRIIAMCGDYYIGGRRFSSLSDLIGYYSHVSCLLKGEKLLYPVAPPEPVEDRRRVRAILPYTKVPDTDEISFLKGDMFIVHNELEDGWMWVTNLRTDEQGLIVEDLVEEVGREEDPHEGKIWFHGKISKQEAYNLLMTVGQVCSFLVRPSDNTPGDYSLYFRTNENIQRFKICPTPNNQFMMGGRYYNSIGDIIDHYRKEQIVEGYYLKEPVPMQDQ
Sequence of PLCG2-NC (Homo sapiens) (P16885 527-740): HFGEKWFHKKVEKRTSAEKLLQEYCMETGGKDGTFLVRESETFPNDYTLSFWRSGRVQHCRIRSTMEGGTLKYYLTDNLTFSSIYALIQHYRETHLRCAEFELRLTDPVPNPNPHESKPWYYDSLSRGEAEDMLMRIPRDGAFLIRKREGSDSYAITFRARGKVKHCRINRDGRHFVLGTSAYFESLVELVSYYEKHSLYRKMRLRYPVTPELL
Sequence of SHC1-PTB (Homo sapiens) (P29353 483-583): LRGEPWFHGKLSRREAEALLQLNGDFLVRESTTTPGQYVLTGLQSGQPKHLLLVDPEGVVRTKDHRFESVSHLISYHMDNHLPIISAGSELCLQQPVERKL
Sequence of TENC1 (Homo sapiens) (Q63HR2 1135-1252): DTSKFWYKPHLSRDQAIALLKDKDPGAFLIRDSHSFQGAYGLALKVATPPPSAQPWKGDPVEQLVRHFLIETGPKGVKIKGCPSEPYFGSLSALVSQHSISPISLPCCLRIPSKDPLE
Sequence of PIK3R2-NC (Homo sapiens) (O00459 325-721): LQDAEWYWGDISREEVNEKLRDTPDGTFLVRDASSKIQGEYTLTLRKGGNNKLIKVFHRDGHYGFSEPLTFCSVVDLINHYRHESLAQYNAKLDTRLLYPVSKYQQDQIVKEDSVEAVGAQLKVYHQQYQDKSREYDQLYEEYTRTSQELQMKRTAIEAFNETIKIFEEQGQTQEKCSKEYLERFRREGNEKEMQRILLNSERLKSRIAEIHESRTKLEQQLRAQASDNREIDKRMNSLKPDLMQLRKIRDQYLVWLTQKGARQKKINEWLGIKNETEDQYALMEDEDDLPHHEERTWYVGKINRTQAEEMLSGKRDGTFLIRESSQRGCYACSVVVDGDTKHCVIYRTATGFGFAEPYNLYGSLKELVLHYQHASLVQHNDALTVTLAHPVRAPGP
Sequence of VAV1 (Homo sapiens) (P15498 666-770): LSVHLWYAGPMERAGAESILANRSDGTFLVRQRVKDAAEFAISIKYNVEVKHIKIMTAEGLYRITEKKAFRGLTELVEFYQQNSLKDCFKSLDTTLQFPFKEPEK
Sequence of PIK3R1-N (Homo sapiens) (P27986 328-723): as the sequence (P27986 328-723) above
Sequence of RASA1-N (Homo sapiens) (P20936 176-446): as the sequence (P20936 176-446) above
Sequence of SHB (Homo sapiens) (Q15464 405-509): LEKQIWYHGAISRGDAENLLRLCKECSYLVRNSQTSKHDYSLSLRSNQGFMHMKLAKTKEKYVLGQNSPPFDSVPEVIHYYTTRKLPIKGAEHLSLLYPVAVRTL
Sequence of GRB7 (Homo sapiens) (Q14451 426-532): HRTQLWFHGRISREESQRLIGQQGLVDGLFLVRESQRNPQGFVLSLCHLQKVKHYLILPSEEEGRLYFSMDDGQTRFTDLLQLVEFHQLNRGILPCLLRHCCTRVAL
Sequence of SHE (Homo sapiens) (Q5VZ18 390-495): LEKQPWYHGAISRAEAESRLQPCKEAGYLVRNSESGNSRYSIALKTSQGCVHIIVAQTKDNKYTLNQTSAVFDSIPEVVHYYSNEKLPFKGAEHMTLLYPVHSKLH
Sequence of ITK (Homo sapiens) (Q08881 234-343): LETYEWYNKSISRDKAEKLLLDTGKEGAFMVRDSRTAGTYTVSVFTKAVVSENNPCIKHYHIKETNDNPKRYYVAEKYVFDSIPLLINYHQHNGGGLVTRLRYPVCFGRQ
Sequence of PLCG2-N (Homo sapiens) (P16885 527-740): as the sequence (P16885 527-740) above
Sequence of NCK2 (Homo sapiens) (O43639 280-380): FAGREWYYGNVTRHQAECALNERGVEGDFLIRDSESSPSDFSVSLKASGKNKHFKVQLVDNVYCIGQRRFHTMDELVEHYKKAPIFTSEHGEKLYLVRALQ
Sequence of GRB10 (Homo sapiens) (Q13322 488-579): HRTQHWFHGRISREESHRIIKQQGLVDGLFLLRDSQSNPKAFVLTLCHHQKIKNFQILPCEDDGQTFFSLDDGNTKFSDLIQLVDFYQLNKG
Sequence of PIK3R2-N (Homo sapiens) (O00459 325-721): as the sequence (O00459 325-721) above
Sequence of SH2D3C (Homo sapiens) (Q8N5H7 215-324): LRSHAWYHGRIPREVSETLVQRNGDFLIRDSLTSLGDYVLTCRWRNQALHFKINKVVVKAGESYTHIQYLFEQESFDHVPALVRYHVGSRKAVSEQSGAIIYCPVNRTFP
Sequence of TNS3 (Homo sapiens) (Q68CZ2 1167-1287): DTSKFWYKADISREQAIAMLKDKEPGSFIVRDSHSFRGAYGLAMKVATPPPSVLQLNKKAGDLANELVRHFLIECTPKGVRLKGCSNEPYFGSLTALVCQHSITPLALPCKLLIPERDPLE
Sequence of BLK (Homo sapiens) (P51451 119-225): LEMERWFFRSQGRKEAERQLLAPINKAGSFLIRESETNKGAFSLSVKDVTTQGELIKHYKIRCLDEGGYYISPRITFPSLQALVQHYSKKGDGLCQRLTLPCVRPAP
Sequence of SLA (Homo sapiens) (Q13239 79-180): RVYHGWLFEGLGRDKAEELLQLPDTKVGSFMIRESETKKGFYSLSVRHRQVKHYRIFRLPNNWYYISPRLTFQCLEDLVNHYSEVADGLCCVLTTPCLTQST
Sequence of VAV2 (Homo sapiens) (P52735 668-772): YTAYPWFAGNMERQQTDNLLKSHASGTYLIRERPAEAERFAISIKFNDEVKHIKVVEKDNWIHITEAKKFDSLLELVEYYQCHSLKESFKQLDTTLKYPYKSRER
Sequence of VAV3 (Homo sapiens) (Q9UKW4 667-771): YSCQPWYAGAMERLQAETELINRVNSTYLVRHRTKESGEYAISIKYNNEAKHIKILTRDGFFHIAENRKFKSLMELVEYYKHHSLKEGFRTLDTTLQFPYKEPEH
Sequence of SHF (Homo sapiens) (Q7M4L6 318-423): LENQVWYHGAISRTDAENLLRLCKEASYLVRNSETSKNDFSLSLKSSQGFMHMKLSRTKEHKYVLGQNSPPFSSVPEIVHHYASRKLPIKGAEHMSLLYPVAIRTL
Sequence of PIK3R1-C (Homo sapiens) (P27986 328-723): as the sequence (P27986 328-723) above
Sequence of RASA1-C (Homo sapiens) (P20936 176-446): as the sequence (P20936 176-446) above
Sequence of SH2D1B (Homo sapiens) (O14796 1-106): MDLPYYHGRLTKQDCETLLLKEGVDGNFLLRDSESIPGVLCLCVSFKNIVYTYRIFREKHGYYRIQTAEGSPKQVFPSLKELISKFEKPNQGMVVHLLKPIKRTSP

In the case of …pYLLNWCVQd, the apparent Kd (screen) (SYK-NC (Homo sapiens) [1]) is listed as 0.24 µM, the apparent Kd (screen) (GRB7 (Homo sapiens) [2]) is listed as 0.456 µM and the apparent Kd (screen) (RASA1-C (Homo sapiens)) is listed as 1.95 µM. The apparent Kd (screen) (ITK (Homo sapiens)) was 0.31 µM, the apparent Kd (screen) (ABL2 (Homo sapiens) [3]) was 0.201 µM and the apparent Kd (screen) (PIK3R3-NC (Homo sapiens) [4]) was 1.87 µM. For the same substance, the apparent Kd (screen) (SH2D1B (Homo sapiens)) was 1.6 µM, the apparent Kd (screen) (VAV3 (Homo sapiens)) was 0.96 µM and the apparent Kd (screen) (TENC1 (Homo sapiens) [5]) was 1.15 µM. The apparent Kd (screen) (VAV1 (Homo sapiens) [6]) was 0.373 µM, the apparent Kd (screen) (SHF (Homo sapiens)) was 1.06 µM and the apparent Kd (screen) (PIK3R1-NC (Homo sapiens) [7]) was 1.82 µM. For the same substance, the apparent Kd (screen) (PIK3R1-C (Homo sapiens)) was 1.85 µM, the apparent Kd (screen) (NCK2 (Homo sapiens)) was 0.195 µM and the apparent Kd (screen) (GRB10 (Homo sapiens)) was 0.353 µM. For the same substance, the apparent Kd (screen) (TNS3 (Homo sapiens)) was 1.89 µM, the apparent Kd (screen) (SRC (Homo sapiens)) was 0.084 µM and the apparent Kd (screen) (SHC1-PTB (Homo sapiens) [8]) was 1.5 µM. For the same substance, the apparent Kd (screen) (VAV2 (Homo sapiens)) was 0.472 µM, the apparent Kd (screen) (YES1 (Homo sapiens) [9]) was 0.022 µM and the apparent Kd (screen) (SHB (Homo sapiens) [10]) was 0.276 µM. For the same substance, the apparent Kd (screen) (SHE (Homo sapiens)) was 1.38 µM, the apparent Kd (screen) (SH2D3C (Homo sapiens)) was 0.052 µM and the apparent Kd (screen) (RASA1-NC (Homo sapiens) [11]) was 0.155 µM.

In the case of …pYEYMDVGS, the apparent Kd (screen) (SYK-NC (Homo sapiens) [12]) is given as 0.851 µM, the apparent Kd (screen) (PIK3R1-N (Homo sapiens) [13]) is given as 1.25 µM and the apparent Kd (screen) (ABL2 (Homo sapiens) [14]) is given as 0.158 µM. The apparent Kd (screen) (PIK3R3-NC (Homo sapiens) [15]) was 0.097 µM, the apparent Kd (screen) (RASA1-N (Homo sapiens) [16]) was 0.671 µM and the apparent Kd (screen) (TENC1 (Homo sapiens) [17]) was 0.903 µM. The apparent Kd (screen) (VAV1 (Homo sapiens) [18]) was 2 µM, the apparent Kd (screen) (PIK3R1-NC (Homo sapiens) [19]) was 0.375 µM and the apparent Kd (screen) (PIK3R3-N (Homo sapiens) [20]) was 0.553 µM. The apparent Kd (screen) (PIK3R2-NC (Homo sapiens) [21]) was 0.385 µM and the apparent Kd (screen) (PIK3R3-C (Homo sapiens)) was 0.27 µM.

For …pYTPMSGNQd, the apparent Kd (screen) (PIK3R1-N (Homo sapiens) [22]) is given as 0.541 µM, the apparent Kd (screen) (ABL2 (Homo sapiens) [23]) is given as 0.659 µM and the apparent Kd (screen) (PIK3R3-NC (Homo sapiens) [24]) is given as 0.576 µM. For the same substance, the apparent Kd (screen) (PIK3R1-NC (Homo sapiens) [25]) was 1.44 µM, the apparent Kd (screen) (PIK3R3-N (Homo sapiens) [26]) was 0.888 µM and the apparent Kd (screen) (PIK3R2-NC (Homo sapiens) [27]) was 0.461 µM. The apparent Kd (screen) (PIK3R2-N (Homo sapiens)) was 0.201 µM.

In the case of …pYWNHSLPPd, the apparent Kd (screen) (ABL2 (Homo sapiens) [28]) is given as 0.034 µM and the apparent Kd (screen) (SHC1-PTB (Homo sapiens) [29]) is given as 0.509 µM.

In the case of …pYMDVGSDL, the apparent Kd (screen) (SLA (Homo sapiens)) is listed as 2 µM, the apparent Kd (screen) (ABL2 (Homo sapiens) [30]) is listed as 1.13 µM and the apparent Kd (screen) (PLCG2-NC (Homo sapiens) [31]) is listed as 2 µM. For the same substance, the apparent Kd (screen) (PIK3R3-NC (Homo sapiens) [32]) was 1.51 µM, the apparent Kd (screen) (RASA1-N (Homo sapiens) [33]) was 2 µM and the apparent Kd (screen) (RASA1-NC (Homo sapiens) [34]) was 2 µM.

For …pYSSDPTGAd, the apparent Kd (screen) (ABL2 (Homo sapiens) [35]) is given as 2 µM, the apparent Kd (screen) (YES1 (Homo sapiens) [36]) is given as 0.295 µM and the apparent Kd (screen) (SHB (Homo sapiens) [37]) is given as 0.862 µM.

For …pYHADGGKVd, the apparent Kd (screen) (GRB7 (Homo sapiens) [38]) is given as 1.2 µM, the apparent Kd (screen) (BLK (Homo sapiens)) is given as 0.718 µM and the apparent Kd (screen) (PLCG2-NC (Homo sapiens) [39]) is given as 1.1 µM. For the same substance, the apparent Kd (screen) (PLCG2-N (Homo sapiens)) was 0.647 µM, the apparent Kd (screen) (YES1 (Homo sapiens) [40]) was 1.89 µM and the apparent Kd (screen) (RASA1-NC (Homo sapiens) [41]) was 1.4 µM.
